Assay results: publication PMC7116145

Target: CPTX, biotinylated on a C-terminal Avitag (immobilised in SPR) (UniProt P23435)
Assay: SPR

B1: mouse glutamate receptor A4 amino-terminal domain (domain or fragment)
chain: GAFPSSVQIGGLFIRNTDQEYTAFRLAIFLHNTSPNASEAPFNLVPHVDNIETANSFAVTNAFCSQYSRGVFAIFGLYDKRSVHTLTSFCSALHISLITPSFPTEGESQFVLQLRPSLRGALLSLLDHYEWNCFVFLYDTDRGYSILQAIMEKAGQNGWHVSAICVENFNDVSYRQLLEELDRRQEKKFVIDCEIERLQNILEQIVSVGKHVKGYHYIIANLGFKDISLERFIHGGANVTGFQLVDFNTPMVTKLMDRWKKLDQREYPGSETPPKYTSALTYDGVLVMAETFRSLRRQKIDISRRGNAGDCLANPAAPWGQGIDMERTLKQVRIQGLTGNVQFDHYGRRVNYTMDVFELKSTGPRKVGYWNDMDKLVLIQDAPTLGNDTAAIENRTVVVT
- Kd: 4.5 µM
